Publication PMC7112951

Tests used:
[1] = target: E. coli ClpP (residues 1-193 of mature ClpP), tag removed, used for cryo-EM (Escherichia coli); assay: cryo-EM structure; ClpX^∆N pseudohexamer 4 µM and ClpP14 1.8 µM (2 µM in the results) in EM buffer (20 mM HEPES, pH 7.5, 100 mM KCl, 25 mM MgCl2, 5 mM ATPγS), 5 min at 25°C before vitrification; doubly capped complexes analysed
[2] = target: [RKH2-AAA]2 single-chain ClpX^ΔN pseudohexamer (Escherichia coli) (UniProt P0A6H1)

Work on “E. coli ClpP (residues 1-193 of mature ClpP), tag removed, used for cryo-EM (enzyme)” yielded a stoichiometry N [1] of 14.

With ^cp7GFP-ssrA the KM for steady-state degradation of ^CP7GFP-ssrA, against the parent pseudohexamer [2] was 3 fold.
